Substrate: OCCCCCO
Test: Reactions of horse liver ADH1E with 1,5-pentanediol and 5-hydroxypentanal
Type: biochemical
Settings: pH 7.0; 25.0 °C

B1: horse liver ADH1E (Equus caballus) (protein)
chain: STAGKVIKCKAAVLWEEKKPFSIEEVEVAPPKAHEVRIKMVATGICRSDDHVVSGTLVTPLPVIAGHEAAGIVESIGEGVTTVRPGDKVIPLFTPQCGKCRVCKHPEGNFCLKNDLSMPRGTMQDGTSRFTCRGKPIHHFLGTSTFSQYTVVDEISVAKIDAASPLEKVCLIGCGFSTGYGSAVKVAKVTQGSTCAVFGLGGVGLSVIMGCKAAGAARIIGVDINKDKFAKAKEVGATECVNPQDYKKPIQEVLTEMSNGGVDFSFEVIGRLDTMVTALSCCQEAYGVSVIVGVPPDSQNLSMNPMLLLSGRTWKGAIFGGFKSKDSVPKLVADFMAKKFALDPLITHVLPFEKINEGFDLLRSGESIRTILTF
B1 was tested, and the Km was 21 mM.

From article PMC4414724
